# Measurements as given in PMC4078364, “Complete sucrose hydrolysis by heat-killed recombinant Pichia pastoris cells entrapped in calcium alginate” (Microbial Cell Factories, 2014).
# Substrate: OC[C@H]1O[C@@](CO)(O[C@H]2O[C@H](CO)[C@@H](O)[C@H](O)[C@H]2O)[C@@H](O)[C@@H]1O
# Assay: DNSA reducing sugar assay, initial rates, Lineweaver-Burk
# Type: cell-based, Thermotoga maritima
# Details: free (non-immobilized) heat-killed P. pastoris cells with periplasmic enzyme, 10-200 mM sucrose, 50 mM sodium acetate pH 5.5, 60 °C, cell-wall diffusion barrier
protein,measurement,value
"BfrA (Thermotoga maritima β-fructosidase) (Thermotoga maritima MSB8) (protein, secreted to periplasm of Pichia pastoris PpBfrA(4x); N-glycosylated, 58 and 53 kDa (51 kDa deglycosylated); assayed in heat-killed whole cells) MFKPNYHFFPITGWMNDPNGLIFWKGKYHMFYQYNPRKPEWGNICWGHAVSDDLVHWRHLPVALYPDDETHGVFSGSAVEKDGKMFLVYTYYRDPTHNKGEKETQCVAMSENGLDFVKYDGNPVISKPPEEGTHAFRDPKVNRSNGEWRMVLGSGKDEKIGRVLLYTSDDLFHWKYEGVIFEDETTKEIECPDLVRIGEKDILIYSITSTNSVLFSMGELKEGKLNVEKRGLLDHGTDFYAAQTFFGTDRVVVIGWLQSWLRTGLYPTKREGWNGVMSLPRELYVENNELKVKPVDELLALRKRKVFETAKSGTFLLDVKENSYEIVCEFSGEIELRMGNESEEVVITKSRDELIVDTTRSGVSGGEVRKSTVEDEATNRIRAFLDSCSVEFFFNDSIAFSFRIHPENVYNILSVKSNQVKLEVFELENIWL",Km,99 mM
